The values that follow come from article PMC10374146.

To fix the notation:
B1: BME_RS01725 (membrane protein) (dsDNA)
DNA 1: GCATATTTTAGAATTATTCTAAATT
DNA 2: AATTTAGAATAATTCTAAAATATGC
B2: BME_RS14525 (ftrA) (dsDNA)
DNA 1: CTTAATGAAAAATCTATTCAG
DNA 2: CTGAATAGATTTTTCATTAAG
B3: BME_RS10660 (zntA) (dsDNA)
DNA 1: TCAGGCAAGCTTCATGCCCATATCC
DNA 2: GGATATGGGCATGAAGCTTGCCTGA
B4: BME_RS09560 (hypothetical protein) (dsDNA)
DNA 1: ATGTTATAGAGCGATTCTGGTT
DNA 2: AACCAGAATCGCTCTATAACAT
B5: BME_RS13655 (2Fe-2S binding protein) (dsDNA)
DNA 1: CGGTTTATTTTGTTTTTTTAGTTTC
DNA 2: GAAACTAAAAAAACAAAATAAACCG

The series deals with Irr (iron response regulator) (Brucella melitensis M5-90, UniProt Q842L5 1-145). The experiment in a line: EMSA. Conditions: protein: ivt; tags: Halo (pDAP-Halo-Kan vector); chain copies: 2; label: biotin; blunt. (In general: In EMSA bound probe runs differently from free probe, usually more slowly.)
As for B1, the binding result was “binds”.

For B2, the binding result is listed as “binds”.

As to B3, the binding result is on record as “binds”.

On to B4, for which the binding result is reported as “binds”.

Turning to B5, the binding result is given as “binds”.
